Reference: paper PMC5679652, “Broadening the functionality of a J-protein/Hsp70 molecular chaperone system” (PLoS Genetics, 2017)
Where no end group is shown, it is not given here. Flc = fluorescein label

How the values were obtained:
[1] = biological target: T1, Ssa1 (wild type, His-tagged) (S. cerevisiae, UniProt P10591 1-642)
T1 construct: Ssa1, cytosolic Hsp70 of Saccharomyces cerevisiae; Ssa1(1-532) is said to lack 110 residues, so the whole protein has 642 residues; Assayed with 1 mM ADP (anisotropy) or as a preformed 32P-ATP complex (ATPase); also called WT Ssa1; His-Ssa
T1 sequence (P10591 whole entry): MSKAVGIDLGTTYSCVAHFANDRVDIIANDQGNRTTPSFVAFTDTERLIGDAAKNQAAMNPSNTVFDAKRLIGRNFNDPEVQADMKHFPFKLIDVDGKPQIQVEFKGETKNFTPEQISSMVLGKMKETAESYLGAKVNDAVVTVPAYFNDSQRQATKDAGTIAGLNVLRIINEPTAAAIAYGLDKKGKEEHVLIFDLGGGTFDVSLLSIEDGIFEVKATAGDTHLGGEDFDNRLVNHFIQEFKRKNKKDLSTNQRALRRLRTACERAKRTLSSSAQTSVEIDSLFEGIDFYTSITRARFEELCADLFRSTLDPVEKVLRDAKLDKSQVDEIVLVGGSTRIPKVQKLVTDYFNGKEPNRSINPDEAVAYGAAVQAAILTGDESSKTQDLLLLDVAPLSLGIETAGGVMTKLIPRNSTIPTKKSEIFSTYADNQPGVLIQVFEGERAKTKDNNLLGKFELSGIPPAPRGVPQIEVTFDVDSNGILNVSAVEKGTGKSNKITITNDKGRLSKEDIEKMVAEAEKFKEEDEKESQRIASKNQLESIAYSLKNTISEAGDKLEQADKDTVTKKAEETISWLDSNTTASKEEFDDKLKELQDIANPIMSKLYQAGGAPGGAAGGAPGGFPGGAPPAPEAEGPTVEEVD

Ssa1 R444E (His-tagged) [2] = biological target: T2, Ssa1 R444E (His-tagged) (S. cerevisiae, UniProt P10591 1-642, R444E); experiment: cell-based or functional assay
T2 sequence (P10591 whole entry R444E): as the sequence (P10591 whole entry) above, with R444E counted along it

Ssa1 K446E (His-tagged) [3] = biological target: T3, Ssa1 K446E (His-tagged) (S. cerevisiae, UniProt P10591 1-642, K446E); experiment: cell-based or functional assay
T3 sequence (P10591 whole entry K446E): as the sequence (P10591 whole entry) above, with K446E counted along it

[4] = biological target: T1, Ssa1 (wild type, His-tagged); experiment: fluorescence polarisation; dissociation kinetics: 5 uM Ssa1, 10 nM F-P5, 1 mM ADP brought to equilibrium, then unlabeled P5 added to 40 uM; read every 10 s; percent of the signal at t = 0; settings: both partners purified
[5] = biological target: T1, Ssa1 (wild type, His-tagged); experiment: fluorescence polarisation; equilibrium titration: 10 nM F-P5 with Ssa1 in 2-fold steps from 2.4 nM to 5 uM, 1 mM ADP, buffer A (25 mM Hepes-KOH pH 7.5, 100 mM KCl, 11 mM MgOAc), 4% glycerol, 0.005% NP-40, 24 hr at room temperature (23°C); one site saturation fit; settings: both partners purified
Ssa1 R444E (His-tagged) [6] = biological target: T2, Ssa1 R444E (His-tagged); experiment: as above; settings: both partners purified
Ssa1 K446E (His-tagged) [7] = biological target: T3, Ssa1 K446E (His-tagged); experiment: as above; settings: both partners purified

Q: How did the stimulation of single-turnover ATPase activity of the 32P-ATP/Ssa1 complex, compared with WT Ydj1 (% less active than WT) [1] turn out when “Ydj1 G70N (from UniProt P25491 1-409) (natural protein)” was run?
A: Its stimulation of single-turnover ATPase activity of the 32P-ATP/Ssa1 complex, compared with WT Ydj1 (% less active than WT) is 20.

B1: peptide P5 (unlabeled) (peptide)
peptide: CALLLSAPRR
notes: peptide substrate P5; also called unlabeled P5; peptide substrate; source: bought: Sigma Chemical, St. Louis, MO
Q: How did the “fold stimulation of single-turnover ATPase activity of the 32P-ATP/Ssa1 complex by peptide P5, relative to basal activity (four P5 concentrations; value at 133 uM)” value (Ssa1 R444E (His-tagged) [2]) turn out when B1 was run?
A: Its value is 1.7 fold.

Q: And the “fold stimulation of single-turnover ATPase activity of the 32P-ATP/Ssa1 complex by peptide P5, relative to basal activity (four P5 concentrations; value at 133 uM)” value (Ssa1 K446E (His-tagged) [3])?
A: The value was 2.8 fold.

Q: Does B1 bind [4]?
A: Result: binds

B2: fluorescein-labeled P5 peptide (peptide)
peptide: Flc-CALLLSAPRR
notes: peptide substrate P5; also called F-P5; source: bought: Sigma Chemical, St. Louis, MO
Q: Does B2 bind [5]?
A: Result: binds

Q: Does B2 bind (Ssa1 R444E (His-tagged) [6])?
A: Result: binds

Q: Does B2 bind (Ssa1 K446E (His-tagged) [7])?
A: Result: binds
